Source: paper PMC3992121 (Proteins, 2013)

Biological target: the molecule itself
Test: SEC

Protein	stoichiometry N
BaiA1, 3α-Hydroxysteroid Dehydrogenase from Clostridium scindens VPI 12708 (enzyme, UniProt P07914 1-249, looked up) MKLVQDKITIITGGTRGIGFAAAKLFIENGAKVSIFGETQEEVDTALAQLKELYPEEEVLGFAPDLTSRDAVMAAVGTVAQKYGRLDVMINNAGITMNSVFSRVSEEDFKNIMDINVNGVFNGAWSAYQCMKDAKQGVIINTASVTGIYGSLSGIGYPTSKAGVIGLTHGLGREIIRKNIRVVGVAPGVVDTDMTKGLPPEILEDYLKTLPMKRMLKPEEIANVYLFLASDLASGITATTISVDGAYRP	4
BaiA2, 3α-Hydroxysteroid Dehydrogenase from Clostridium scindens VPI 12708 (enzyme, UniProt P19337 1-249, looked up, selenomethionine (protein expressed in a selenomethionine-containing medium for structure determination)) MNLVQDKVTIITGGTRGIGFAAAKIFIDNGAKVSIFGETQEEVDTALAQLKELYPEEEVLGFAPDLTSRDAVMAAVGQVAQKYGRLDVMINNAGITSNNVFSRVSEEEFKHIMDINVTGVFNGAWCAYQCMKDAKKGVIINTASVTGIFGSLSGVGYPASKASVIGLTHGLGREIIRKNIRVVGVAPGVVNTDMTNGNPPEIMEGYLKALPMKRMLEPEEIANVYLFLASDLASGITATTVSVDGAYRP	4
